According to publication PMC6962038 (Science Advances, 2020):

How the values were obtained:
[1] = target: APJ463 chimeric receptor reconstituted in nanodiscs (human, UniProt P35414, C325L | C326M); assay: SPR
[2] = target: wild-type human APJ (membrane preparation) (human, UniProt P35414); assay: cell-based or functional assay

Kd [1]: 0.083 nM | IC50 of antagonism of the action of Apelin 13 on human APJ, cAMP assay [2]: 5.9 nM
B1: single-domain antibody (sdAb) antagonist JN241 (VHH)
VHH: QVQLVESGGGSVQSGGSLTLSCAASGSTYSSHCMGWFRQAPGKEREGVALMTRSRGTSYADSVKGRFTISQDNTKNILYLQMNSLKPEDTAMYYCAAVPRAGIESGAYCKWNMKDSGSWGQGTLVTVSS
